Target: purified IgG1
Assay: ELISA on dilutions of purified isotype standards

With “anti-mouse IgG1 secondary antibody (tool reagent)” the greater affinity than the IgG2a antibody pair was 40%.

From US20110110981A1
